We go through 1 molecule from patent publication US20030031673A1 (published 2003).

This assay addresses T1, prostate specific membrane antigen (human, UniProt Q04609 1-750).
T1 construct: whole, on cells; also called PSMA
The experiment in a line: Western blot, prostatic (seminal) fluid. As to the method:
To confirm that antibodies E99, J415, J533, and J591 precipitate an identical band to the 7Ell antibody (i.e., PSMA), Western Blot analyses were performed. Seminal plasma (400 μg/lane) or LNCaP lysate were loaded into lanes of 12% SDS-PAGE gels. After electrophoresis, the gels are transferred to nitrocellulose membranes. The membranes were blocked with 5% dry milk/Tris-buffered saline-tween 20 (“TBST”) for 60 min at room temperature. After washing, the membranes were incubated with primary mAb for 60 min at room temperature. After repeat washing, the membranes were incubated with sheep anti-mouse-Ig-peroxidase 1/5000 in 5% dry milk/TEST for 60 min at room temperature. After repeat washing, the membranes were developed using a chemiluminescent tag designated “ECL” (Amersham Life Sciences, International, Arlington Heights, Ill.) according to the manufacturer's directions.

T1 sequence (Q04609 whole entry): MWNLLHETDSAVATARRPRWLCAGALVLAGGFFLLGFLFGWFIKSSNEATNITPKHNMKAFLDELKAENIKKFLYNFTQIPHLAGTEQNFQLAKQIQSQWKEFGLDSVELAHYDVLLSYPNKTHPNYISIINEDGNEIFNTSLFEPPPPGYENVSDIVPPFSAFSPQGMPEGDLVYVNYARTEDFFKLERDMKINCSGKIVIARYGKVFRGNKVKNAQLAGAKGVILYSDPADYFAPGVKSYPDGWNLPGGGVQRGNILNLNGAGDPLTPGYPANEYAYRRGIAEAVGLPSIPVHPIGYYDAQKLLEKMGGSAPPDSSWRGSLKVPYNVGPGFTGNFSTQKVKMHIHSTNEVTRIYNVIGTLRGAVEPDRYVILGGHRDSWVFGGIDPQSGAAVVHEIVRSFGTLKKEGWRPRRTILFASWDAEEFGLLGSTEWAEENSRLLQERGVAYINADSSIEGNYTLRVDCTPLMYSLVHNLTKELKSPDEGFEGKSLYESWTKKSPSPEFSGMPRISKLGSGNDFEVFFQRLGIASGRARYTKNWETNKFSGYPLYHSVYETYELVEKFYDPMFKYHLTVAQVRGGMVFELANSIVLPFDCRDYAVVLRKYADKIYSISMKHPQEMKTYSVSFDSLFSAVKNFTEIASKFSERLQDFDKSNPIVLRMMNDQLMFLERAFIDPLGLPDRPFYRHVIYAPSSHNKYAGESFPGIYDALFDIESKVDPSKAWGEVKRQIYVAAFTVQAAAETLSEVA

B1: monoclonal antibody J591 (antibody, V domains shown)
VH: EVQLQQSGPELVKPGTSVRISCKTSGYTFTEYTIHWVKQSHGKSLEWIGNINPNNGGTTYNQKFEDKATLTVDKSSSTAYMELRSLTSEDSAVYYCAAGWNFDYWGQGTTLTVSS
VL: DIVMTQSHKFMSTSVGDRVSIICKASQDVGTAVDWYQQKPGQSPKLLIYWASTRHTGVPDRFTGSGSGTDFTLTITNVQSEDLADYFCQQYNSYPLTFGAGTMLDLK
notes: Gold-labeled in the electron microscopy; also called mAb J591; hybridoma ATCC HB-12126
On to B1, for which the binding result is recorded as “binds”.
